T1: human integrin β8 swap construct RKMALY (SEQ ID NO:129) (human, UniProt P26012 43-769)
T1 sequence: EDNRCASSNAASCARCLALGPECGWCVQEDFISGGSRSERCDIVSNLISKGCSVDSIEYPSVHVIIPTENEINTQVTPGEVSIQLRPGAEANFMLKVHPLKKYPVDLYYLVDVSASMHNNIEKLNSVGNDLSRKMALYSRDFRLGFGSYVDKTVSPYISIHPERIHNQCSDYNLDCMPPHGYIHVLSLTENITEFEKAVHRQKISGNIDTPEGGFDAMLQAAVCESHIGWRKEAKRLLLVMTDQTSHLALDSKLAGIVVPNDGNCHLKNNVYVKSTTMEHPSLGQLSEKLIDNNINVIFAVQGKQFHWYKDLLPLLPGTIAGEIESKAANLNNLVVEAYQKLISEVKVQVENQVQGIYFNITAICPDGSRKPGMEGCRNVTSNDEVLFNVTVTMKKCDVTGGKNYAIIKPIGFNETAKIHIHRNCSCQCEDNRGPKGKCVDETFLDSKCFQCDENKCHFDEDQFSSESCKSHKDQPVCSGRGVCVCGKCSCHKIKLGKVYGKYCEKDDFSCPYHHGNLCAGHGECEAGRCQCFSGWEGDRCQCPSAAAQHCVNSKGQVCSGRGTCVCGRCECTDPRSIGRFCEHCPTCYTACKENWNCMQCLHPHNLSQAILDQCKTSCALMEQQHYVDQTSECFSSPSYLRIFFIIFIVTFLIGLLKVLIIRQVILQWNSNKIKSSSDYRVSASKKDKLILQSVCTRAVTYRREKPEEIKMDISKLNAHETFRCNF

T2: mouse integrin β8 (mouse, UniProt Q0VBD0 22-767)
T2 construct: whole, on cells; also called mouse β8; itgb8
T2 sequence (looked up): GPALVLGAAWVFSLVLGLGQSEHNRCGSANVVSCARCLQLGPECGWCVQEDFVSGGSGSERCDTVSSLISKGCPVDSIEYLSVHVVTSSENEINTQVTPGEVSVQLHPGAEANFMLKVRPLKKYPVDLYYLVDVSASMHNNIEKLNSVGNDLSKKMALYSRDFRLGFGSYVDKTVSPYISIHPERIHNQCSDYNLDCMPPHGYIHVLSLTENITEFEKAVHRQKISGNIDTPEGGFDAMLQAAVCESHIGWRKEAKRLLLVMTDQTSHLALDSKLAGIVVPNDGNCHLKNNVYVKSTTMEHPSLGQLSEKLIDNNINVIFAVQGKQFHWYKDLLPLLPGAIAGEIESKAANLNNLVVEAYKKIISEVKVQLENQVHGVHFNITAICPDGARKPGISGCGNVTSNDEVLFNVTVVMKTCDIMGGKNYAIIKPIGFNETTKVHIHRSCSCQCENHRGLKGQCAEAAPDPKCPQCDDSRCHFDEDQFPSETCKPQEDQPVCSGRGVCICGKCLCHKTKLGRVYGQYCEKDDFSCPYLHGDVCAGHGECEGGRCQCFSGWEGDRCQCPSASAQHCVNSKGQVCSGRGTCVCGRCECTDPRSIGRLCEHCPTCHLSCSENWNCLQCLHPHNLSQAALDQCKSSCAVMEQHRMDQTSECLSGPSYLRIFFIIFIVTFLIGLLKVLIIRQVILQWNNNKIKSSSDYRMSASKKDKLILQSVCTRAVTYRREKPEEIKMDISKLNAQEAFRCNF


Experiments:
[1] = target: T1, human integrin β8 swap construct RKMALY …; assay: cell staining of β8 amino acid swap constructs (175-180)
[2] = target: T2, mouse integrin β8; assay: cell surface staining, flow cytometry

% positive [1] [%] | binding result [2] | Binder
14 | – | 37E1B5 antibody (antibody, V domains shown) VH: EVQLVESGGGLVQPGGSLNLSCAVSGFVFSRYWMSWVRQAPGKGLEWIGEINPDSSTINYTSSLKDKFIISRDNAKNTLYLQMNKVRSEDTALYYCACLITTEDYWGQGTSVTVSS VL: QIVLTQSPSSMYASLGERVTIPCKASQDINSYLSWFQQKPGKSPKTLIYYANRLVDGVPSRFSGSGSGQDYSLTISSLEYEDMGIYYCLQYDEFPYTFGGGTKLEIK
1 | no binding | 14E5 antibody (antibody, V domains shown, Mouse hybridoma antibody; also called hybridoma clone 14E5) VH: EVQLQQSGAELMKPGASVKISCKATGYTFSTYWIEWIKQRPGHGLEWIGHILPGSVITNYNEKFKGKAAITADTSSNTSYMQLSSLTSEDSAVYYCARWGWDSYWGQGTLVTVSS VL: DIEMTQSPSSLSASLGDRVTISCSTSQDISSSLNWYQQKPDGTVTLLIYYTSNLHSGVPSRFSGSGSGTDYSLTISNLEPEDIATYYCQQYSKLPYTFGGGTKLEIKR
4 | no binding | 11E8 antibody (antibody, V domains shown, Mouse hybridoma antibody) VH: EVQLQQSGPELMKTGASVKISCKATGYTFSSYWIEWVKQRPGHGLEWIGDILPGSGTTNYNEKFKGRATVTADRSSNTAYMQLSSLTYGDSAVYYCATWGWDTYWDQGTSVTVSS VL: DIVMTQSPSSLSASLGDRVTISCSASQGISNYLNWYQQKPDGTVKLLIYYTSSLHSGVPSRFSGSGSGTDYSLTISNLEPEDIATYYCQQYSNLPYTFGGGTKLEIKR

Reference: patent US20140271478A1 (University of California, published 2014)
